Patent publication US20260167734A1 (PROVIDENCE HEALTH AND SERVICES OREGON, published 2026)
Substitutions are numbered along the chain they refer to. In names and notes the source's numbering stands. Blank lines part the entries; values can stand above or below the binder they belong to.

Legend:
[1] = target: T1, soluble human Fas ligand (FasL) (human, UniProt P48023 103-281, limits assumed); assay: single-dose SPR
T1 construct: also called sFasL; recombinant soluble FasL
T1 sequence: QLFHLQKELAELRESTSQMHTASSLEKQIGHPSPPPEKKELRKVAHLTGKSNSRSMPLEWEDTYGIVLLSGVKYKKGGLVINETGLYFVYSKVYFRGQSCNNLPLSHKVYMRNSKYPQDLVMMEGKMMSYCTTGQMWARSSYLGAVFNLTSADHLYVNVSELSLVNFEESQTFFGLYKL
Text: Several variants of the M3T01 antibody were isolated and tested for binding affinity to human FasL using a single-dose SPR affinity measurement. Each variant clone includes the same CDR sequences as M3T01 but includes one or more amino acid substitutions in the framework region (FR) of the VH domain and/or VL domain. The variant sequences, substitutions relative to the M3T01 VH and VL domains, and measured binding affinity are listed in Table 2. The binding affinities reported in Table 2 are from a single-dose SPR study.

[2] = target: T2, human FasL, cell surface (membrane-bound) (human, UniProt P48023 1-281); assay: cell-based or functional assay
T2 sequence: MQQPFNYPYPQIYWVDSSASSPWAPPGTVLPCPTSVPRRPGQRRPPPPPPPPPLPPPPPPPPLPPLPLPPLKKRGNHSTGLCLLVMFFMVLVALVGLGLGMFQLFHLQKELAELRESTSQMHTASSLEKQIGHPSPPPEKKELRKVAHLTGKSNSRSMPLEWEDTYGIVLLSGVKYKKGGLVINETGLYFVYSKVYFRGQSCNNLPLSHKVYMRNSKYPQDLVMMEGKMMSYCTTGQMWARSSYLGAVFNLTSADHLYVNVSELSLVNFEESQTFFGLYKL

[3] = target: T1, soluble human Fas ligand (FasL); assay: ELISA on soluble FasL
[4] = target: T1, soluble human Fas ligand (FasL); assay: multi-dose SPR, BIACORE 8K; multi-dose SPR using BIACORE 8K
Protocol: (§1) Binding of M3T01 to human FasL was measured by multi-dose SPR using BIACORE™ 8K. […] In another study, binding of M3T01 to soluble FasL (sFasL) was measured by ELISA.

[5] = target: T3, rat FasL, cell surface (rat, UniProt P36940 1-278); assay: flow cytometry, HEK293T cells transfected with rat FasL
T3 construct: Expressed on transfected HEK293T cells
T3 sequence: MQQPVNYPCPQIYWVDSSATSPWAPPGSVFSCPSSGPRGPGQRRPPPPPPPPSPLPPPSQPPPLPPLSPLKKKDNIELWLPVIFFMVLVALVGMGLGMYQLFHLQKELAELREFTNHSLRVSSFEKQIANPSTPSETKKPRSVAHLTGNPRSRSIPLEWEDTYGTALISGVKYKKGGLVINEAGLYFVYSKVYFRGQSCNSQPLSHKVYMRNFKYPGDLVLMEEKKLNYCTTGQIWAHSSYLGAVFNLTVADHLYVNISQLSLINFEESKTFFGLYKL
Protocol: (§2) FIG. 2B: Binding of M3T01 to cell surface FasL across multiple species (human, cynomolgus macaque, rat, and mouse). M3T01 staining of HEK293T cells transfected with vectors expressing FasL from various species was measured by flow cytometry.
(§3) Next, assays were performed to evaluate binding of M3T01 to cell-surface, membrane-bound FasL from a variety of different species. HEK293T cells were transfected with vectors expressing either mouse, human, rat or cynomolgus macaque FasL and binding by M3T01 was measured by flow cytometry.

[6] = target: T4, mouse FasL, cell surface (mouse, UniProt P41047 1-279); assay: flow cytometry, HEK293T cells transfected with mouse FasL
T4 construct: Expressed on transfected HEK293T cells
T4 sequence: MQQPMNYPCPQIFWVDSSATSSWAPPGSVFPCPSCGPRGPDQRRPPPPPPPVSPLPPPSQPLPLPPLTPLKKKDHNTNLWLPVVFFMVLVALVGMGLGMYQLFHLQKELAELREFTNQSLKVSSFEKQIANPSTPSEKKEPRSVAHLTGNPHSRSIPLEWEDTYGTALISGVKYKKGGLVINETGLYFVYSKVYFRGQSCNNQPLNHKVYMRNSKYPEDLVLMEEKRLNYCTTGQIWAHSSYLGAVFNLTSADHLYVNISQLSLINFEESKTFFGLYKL
Protocol: as §2, §3

[7] = target: T5, cynomolgus macaque FasL, cell surface (cynomolgus macaque, UniProt P63308 1-280); assay: flow cytometry, HEK293T cells transfected with cynomolgus macaque FasL
T5 construct: Expressed on transfected HEK293T cells
T5 sequence: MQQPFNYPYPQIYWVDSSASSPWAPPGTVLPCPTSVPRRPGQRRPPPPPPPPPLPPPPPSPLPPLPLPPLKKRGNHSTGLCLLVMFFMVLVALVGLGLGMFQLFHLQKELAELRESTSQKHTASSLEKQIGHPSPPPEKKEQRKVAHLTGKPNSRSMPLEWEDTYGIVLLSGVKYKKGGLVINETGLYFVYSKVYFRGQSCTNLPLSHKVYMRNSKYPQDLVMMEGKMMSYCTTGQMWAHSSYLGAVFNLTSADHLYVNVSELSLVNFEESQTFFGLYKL
Protocol: as §2, §3

[8] = target: T1, soluble human Fas ligand (FasL); assay: SPR, BIACORE 8K, multi-dose; M3T01 in column 'Ligand', Recombinant Human Fas Ligand in column 'Analyte'
Protocol: as §1

B2: M27.3 (antibody, V domains shown)
VH: QVQLVESGGGVVQPGRSLRLSCAASGFTFSTYGIHWVRQAPGKGLEWVAVIWYDGSDKFYADSVKGRFTISRDNSKDTLYLEMNSLRAEDTAMYYCARDRDNWNYFDYWGQGTLVTVSS
VL: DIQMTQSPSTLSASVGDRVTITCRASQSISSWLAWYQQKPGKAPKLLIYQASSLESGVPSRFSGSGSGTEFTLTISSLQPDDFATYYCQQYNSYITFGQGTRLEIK
notes: Variant clone of M3T01 with the same CDRs
Kd [1]: 1.96 nM

B5: M27.1 (antibody, V domains shown)
VH: B2 VH
VL: DIQMTQSPSTLSASVGDRVTITCRASQSISSWLAWYQQKPGKAPKFLIYQASSLESGVPSRFSGSGSGTEFTLTISSLQPDDFATYYCQQYNSYITFGQGTRLEIK
notes: as for B2
Kd [1]: 1.36 nM

Continued by falling Kd [1], values first:

Kd [1]: 3.44 nM
B3: M27.5 (antibody, V domains shown)
VH: B2 VH with E82Q
VL: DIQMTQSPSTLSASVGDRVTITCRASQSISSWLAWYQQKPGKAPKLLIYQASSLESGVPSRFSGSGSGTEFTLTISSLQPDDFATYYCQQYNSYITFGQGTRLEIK
notes: as for B2

Kd [1]: 3.2 nM | inhibition of FasL-mediated apoptosis of Jurkat cells (annexin-V externalization, flow cytometry), IC50 [2]: 0.33 nM | inhibition of FasL-mediated apoptosis of Jurkat cells, potency relative to sCD95-Fc [2]: 310 fold | EC50 (read off the curve) [3]: ~0.02 nM | Kd [4]: 0.974 nM | binding result [5]: binds | binding result [6]: binds | binding result [7]: binds | koff [8]: 0.000235 s⁻¹ | kon [8]: 242000 M⁻¹ s⁻¹
B1: M3T01 (antibody, V domains shown)
VH: B2 VH with D77N, E82Q, M93V
VL: DIQMTQSPSTLSASVGDRVTITCRASQSISSWLAWYQQKPGKAPKFLIYQASSLESGVPSRFSGSGSGTEFTLTISSLQPDDFATYYCQQYNSYITFGQGTRLEIKR
notes: Fully human IgG4/kappa with S228P; also called M27.2

Kd [1]: 3.1 nM
B4: M27.4 (antibody, V domains shown)
VH: B2 VH with D77N, E82Q, M93V
VL: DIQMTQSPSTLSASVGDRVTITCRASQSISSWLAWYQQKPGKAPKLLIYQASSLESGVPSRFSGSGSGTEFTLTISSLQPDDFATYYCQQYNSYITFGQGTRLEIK
notes: as for B2

Kd [1]: 2.12 nM
B6: M27.6 (antibody, V domains shown)
VH: B2 VH with M93V
VL: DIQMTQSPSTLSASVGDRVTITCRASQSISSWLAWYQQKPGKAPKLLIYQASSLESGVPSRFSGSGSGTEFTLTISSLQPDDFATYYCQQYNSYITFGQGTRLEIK
notes: as for B2
